B1: (Y-S1-X)p-Fab^2 with Y Gd/4arm-DOTA, S1 -CH2-(1,4-Ph)-NH-C(═S)-, X -Gly-(naph-Ala)-Lys*-Z2(#N)- (Fab, V domains shown)
VH: EVQLVESGGGLVQPGGSLRLSCAASGFNIRDTYMHWVRQAPGKGLEWVARIDPANGNSRYVPKFQGRFTISADTSRNTAYLQMNSLRAEDTAVYYCAPFGYYVSDYAMAYWGQGTLVTVSS
VL: DIQLTQSPSSLSASVGDRVTITCRAGESVDIFGVGFLHWYQQKPGKAPKLLIYRASNLESGIPSRFSGSGSRTDFTLTISSLQPEDFATYYCQQTNEDPYTFGQGTKVEIKR
modifications: labeling may sit on this chain; sites not stated; labeling portion (MW 1187) on amino groups of the Fab, sites and chain not stated; 1-2 per Fab by MS
notes: also called Ex-No 55; conjugate 55
B2: (Y-S1-X)p-Fab^2 with Y DFO, S1 -C(═O)-(1,3-Ph)-C(═O)-, X -Gly-Lys*Z2(#S)- (Fab, V domains shown)
VH: B1 VH
VL: B1 VL
modifications: labeling may sit on this chain; sites not stated; labeling portion (MW 1076) on amino groups of the Fab, sites and chain not stated; 1-3 per Fab by MS
notes: No metal; also called Ex-No 64; conjugate 64
B3: (Y-S1-X)p-Fab^2 with Y Gd/4arm-DOTA, S1 spacer (o), X -Met-Gly-Lys*-Z2(#N)- (Fab, V domains shown)
VH: B1 VH
VL: B1 VL
modifications: labeling may sit on this chain; sites not stated; labeling portion (MW 1304) on amino groups of the Fab, sites and chain not stated; 1-2 per Fab by MS
notes: also called Ex-No 59; conjugate 59
B4: [Gd/DOTA]p-Fab^2 (Fab, V domains shown)
VH: B1 VH
VL: B1 VL
modifications: labeling may sit on this chain; sites not stated; [Gd/DOTA] (MW 542) on amino groups of the Fab, sites and chain not stated; 1-2 per Fab by MS
notes: also called Ex-No 47; conjugate 47
B5: [DFO-C(═O)-CH2O-(1,3-Ph)-C(═O)-Gly-Tyr*-CH2-C(═O)-NH-(CH2)2-Z1(#S)]p-Fab^2 (Fab, V domains shown)
VH: B1 VH
VL: B1 VL
modifications: labeling may sit on this chain; sites not stated; labeling portion (MW 1241) bound via 2-iminothiolane-treated amino groups of the Fab, sites and chain not stated; 1 per Fab by MS; free thiols capped with 2-iodoacetamide
notes: No metal; also called Ex-No 60; Conjugate No. 60
B6: (Y-S1-X)p-Fab^2 with Y Gd/DOTA, S1 - (bond), X -Gly-Lys*-C(═S)-NH-(1,4-Ph)-NH-C(═S)- (Fab, V domains shown)
VH: B1 VH
VL: B1 VL
modifications: labeling may sit on this chain; sites not stated; labeling portion (MW 937) on amino groups of the Fab, sites and chain not stated; 1-2 per Fab by MS
notes: also called Ex-No 1; conjugate 1
B7: [DFO-C(═O)-(CH2CH2O)4-(1,3-Ph)-C(═O)-Gly-Lys*-Z2(#S)]p-Fab^2 (Fab, V domains shown)
VH: B1 VH
VL: B1 VL
modifications: labeling may sit on this chain; sites not stated; labeling portion (MW 1252) bound via 2-iminothiolane-treated amino groups of the Fab, sites and chain not stated; 1-2 per Fab by MS
notes: No metal; also called Ex-No 61; Conjugate No. 61
B8: (Y-S1-X)p-Fab^2 with Y Gd/4arm-DOTA, S1 spacer (n), X -Met-Gly-Lys*-Z2(#N)- (Fab, V domains shown)
VH: B1 VH
VL: B1 VL
modifications: labeling may sit on this chain; sites not stated; labeling portion (MW 1244) on amino groups of the Fab, sites and chain not stated; 1 per Fab by MS
notes: also called Ex-No 58; conjugate 58
B9: (Y-S1-X)p-Fab^2 with Y Gd/DOTA, S1 - (bond), X -Gly-Lys*-Z2(#S)- (Fab, V domains shown)
VH: B1 VH
VL: B1 VL
modifications: labeling may sit on this chain; sites not stated; labeling portion (MW 926) on amino groups of the Fab, sites and chain not stated; 1-2 per Fab by MS
notes: also called Ex-No 5; conjugate 5
B10: (Y-S1-X)p-Fab^2 with Y Gd/DOT[A], S1 - (bond), X -Gly-Ile-NH-(CH2)2-Z1(#N)- (Fab, V domains shown)
VH: B1 VH
VL: B1 VL
modifications: labeling may sit on this chain; sites not stated; labeling portion (MW 852) on amino groups of the Fab, sites and chain not stated; 1-3 per Fab by MS
notes: also called Ex-No 3; conjugate 3
B11: (Y-S1-X)p-Fab^2 with Y Gd/DOTA, S1 - (bond), X -Gly-Val-NH-(CH2)2-Z1(#N)- (Fab, V domains shown)
VH: B1 VH
VL: B1 VL
modifications: labeling may sit on this chain; sites not stated; labeling portion (MW 838) on amino groups of the Fab, sites and chain not stated; 1-2 per Fab by MS
notes: also called Ex-No 2; conjugate 2
B12: (Y-S1-X)p-Fab^2 with Y Gd/DOTA, S1 spacer (i), X -Met -Gly-Lys*-Z2(#N)- (Fab, V domains shown)
VH: B1 VH
VL: B1 VL
modifications: labeling may sit on this chain; sites not stated; labeling portion (MW 1296) on amino groups of the Fab, sites and chain not stated; 1-2 per Fab by MS
notes: also called Ex-No 45; conjugate 45
B13: [Gd/4arm-DOTA-CH2-(1,4-Ph)-NH-C(═S)]p-Fab^2 (Fab, V domains shown)
VH: B1 VH
VL: B1 VL
modifications: labeling may sit on this chain; sites not stated; labeling portion (MW 706) on amino groups of the Fab, sites and chain not stated; 1 per Fab by MS
notes: also called Ex-No 48; conjugate 48
B14: (Y-S1-X)p-Fab^2 with Y Gd/4arm-DOTA, S1 -CH2-(1,4-Ph)-NH-C(═S)-, X -Met-Gly-Lys*-Z2(#N)- (Fab, V domains shown)
VH: B1 VH
VL: B1 VL
modifications: labeling may sit on this chain; sites not stated; labeling portion (MW 1121) on amino groups of the Fab, sites and chain not stated; 1 per Fab by MS
notes: also called Ex-No 54; conjugate 54

Biological target: T1, CEACAM5 (R&D Systems, 4128-CM-050) (human, UniProt P06731 35-685)
T1 construct: Immobilised on the ELISA plate; also called human CEACAM5
T1 sequence (looked up): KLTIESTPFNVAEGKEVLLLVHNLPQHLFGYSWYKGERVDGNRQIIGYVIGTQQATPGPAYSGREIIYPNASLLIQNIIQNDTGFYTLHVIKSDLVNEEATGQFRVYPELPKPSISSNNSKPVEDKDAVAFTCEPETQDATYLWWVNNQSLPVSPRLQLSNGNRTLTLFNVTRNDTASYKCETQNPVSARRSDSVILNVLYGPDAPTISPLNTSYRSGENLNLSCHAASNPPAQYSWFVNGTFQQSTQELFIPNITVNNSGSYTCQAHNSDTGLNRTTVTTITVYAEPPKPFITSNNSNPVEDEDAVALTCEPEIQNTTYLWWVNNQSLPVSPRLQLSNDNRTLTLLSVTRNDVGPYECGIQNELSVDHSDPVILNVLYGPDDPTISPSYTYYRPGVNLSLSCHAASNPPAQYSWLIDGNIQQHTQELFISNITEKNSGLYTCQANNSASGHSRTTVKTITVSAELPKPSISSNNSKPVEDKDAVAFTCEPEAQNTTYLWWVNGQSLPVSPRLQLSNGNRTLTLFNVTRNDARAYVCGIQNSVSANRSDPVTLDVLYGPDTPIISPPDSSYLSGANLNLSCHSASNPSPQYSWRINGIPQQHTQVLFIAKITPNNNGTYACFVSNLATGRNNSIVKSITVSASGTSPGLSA
Assay: ELISA on immobilised CEACAM5, 4-parameter fit, duplicate
Protocol: Each anti-human CEACAM5 antibody Fab fragment conjugate prepared in Example 2 was subjected to ELISA to evaluate the binding activity thereof to CEACAM5. In the present test, a phosphate buffer (Nacalai Tesque Inc., 0.1 mol/L-Phosphate Buffer Solution (pH 7.2)) prepared to 10 mM by diluting 10-fold with distilled water was used as a solvent for an antigen immobilization liquid, and 20×PBS/Tween 20 Buffer (Thermo Fisher Scientific Inc., 28352) diluted 20-fold with distilled water was used as a wash liquid. In addition, for bovine serum albumin (BSA) used in the present test, 30% Bovine Serum Albumin solution (Sigma-Aldrich, Inc., A9576-50ML) was added in an appropriate proportion for use. CEACAM5 (R&D Systems, 4128-CM-050) was diluted with a 10 mM phosphate buffer (pH 7.2) to 0.1 μg/mL, and added to a Nunc MaxiSorp White 384 plate (Nunc, 4603272) at 30 μL per well, and the plate was incubated overnight at 4° C. for immobilization. The CEACAM5 immobilization liquid was removed by reverse centrifugation, and then blocking was carried out by adding a PBS/Tween 20 buffer containing 5.0% BSA. Thereafter, the blocking solution was removed by reverse centrifugation, a solution of each CEACAM5 antibody Fab² fragment conjugate described above or a Fab² fragment having no labeling portion (PB009-01) as a control at about 10000 ng/mL was diluted in 14 steps by 3-fold dilution using a PBS/Tween 20 buffer containing 1.0% BSA, and 30 μL was added per well and incubated at room temperature for 60 minutes. The plate was washed 3 times with a PBS/Tween 20 buffer, and Horseradish Peroxidase (HRP)-labeled goat anti-human IgG (H+L chain) antibody (MBL Life Sciences, 206) diluted 1000-fold using a PBS/Tween 20 buffer containing 5.0% BSA was added at 30 μL per well and incubated at room temperature for 30 minutes. The plate was washed 3 times with a PBS/Tween 20 buffer, and ECL Prime Western Blotting DETECTION Reagent (GE Healthcare, RPN2232) as a substrate was added at 30 μL per well. The substrate was incubated at room temperature for 15 minutes, and then a signal value thereof was measured using an Envision counter (PerkinElmer, Inc.).
The test for each antibody was carried out in duplicate, and an EC₅₀ value was calculated using a 4-parameter logistic curve model.

| Binder | EC50 [nM] |
| --- | --- |
| B1 | 0.26 |
| B2 | 0.2 |
| B3 | 0.3 |
| B4 | 0.25 |
| B5 | 0.18 |
| B6 | 0.16 |
| B7 | 0.18 |
| B8 | 0.28 |
| B9 | 0.14 |
| B10 | 0.13 |
| B11 | 0.14 |
| B12 | 0.23 |
| B13 | 0.21 |
| B14 | 0.23 |
